Measurements as given in article PMC3517456.

How the values were obtained:
[1] = target: Gal4AD-Caf1a (UniProt Q9UIV1); test: yeast two-hybrid (β-galactosidase reporter); conditions: yeast strain YRG-2, LacZ reporter under five GAL4 consensus sequences; triplicate; parent: est. 8.4; read off a plot
[2] = target: Gal4AD-Caf1b (UniProt Q9UFF9); test: yeast two-hybrid (β-galactosidase reporter); conditions: yeast strain YRG-2, LacZ reporter under five GAL4 consensus sequences; triplicate; parent: est. 25; read off a plot
UniProt Q9UFF9, sequence (Q9UFF9 whole entry, the tested form may be a part): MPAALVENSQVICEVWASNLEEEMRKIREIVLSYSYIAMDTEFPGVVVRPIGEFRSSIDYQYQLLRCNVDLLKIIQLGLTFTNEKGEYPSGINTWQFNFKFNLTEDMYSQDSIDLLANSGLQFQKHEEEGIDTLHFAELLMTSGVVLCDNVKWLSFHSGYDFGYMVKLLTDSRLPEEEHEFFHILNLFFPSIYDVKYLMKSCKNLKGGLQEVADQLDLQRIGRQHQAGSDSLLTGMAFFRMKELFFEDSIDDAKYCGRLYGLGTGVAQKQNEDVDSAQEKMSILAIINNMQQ

UniProt Q9UIV1, sequence (Q9UIV1 whole entry, the tested form may be a part): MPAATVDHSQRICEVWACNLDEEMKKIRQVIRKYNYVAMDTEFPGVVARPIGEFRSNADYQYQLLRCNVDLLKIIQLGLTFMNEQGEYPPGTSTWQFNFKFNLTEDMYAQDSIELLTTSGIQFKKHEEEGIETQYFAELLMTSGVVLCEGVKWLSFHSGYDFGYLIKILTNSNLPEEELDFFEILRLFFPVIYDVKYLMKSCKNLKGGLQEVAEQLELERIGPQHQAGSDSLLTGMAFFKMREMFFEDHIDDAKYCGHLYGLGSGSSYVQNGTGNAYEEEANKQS

“Gal4-DNA binding domain-TOB1 (from UniProt P50616) H45A” was tested, and the response [1] was 1.7 x10^4 RLU and the response [2] was 2.8 x10^4 RLU.
